Measured values from patent US20120088722A1.
Ends that are not written are not given here.

Experiments:
[1] = biological target: hypertrophic cartilage tissue extract; experiment: fluorescent peptide (100 nM) binding to plate-dried cartilage CHAPS extract, reference scrambled peptide
[2] = biological target: resting cartilage tissue extract; experiment: as above
[3] = biological target: extracellular matrix of whole cell primary chondrocyte cultures; experiment: fluorescent peptide binding to extracellular matrix of hypertrophic chondrocyte monolayer cultures, reference scrambled peptide

Row | fold binding over scrambled peptide control [2] [fold] | Binder | fold binding over scrambled peptide control [1] [fold] | fold binding compared to scrambled peptide [3] [fold]
1 | 5 | ELGLPKEVKKISAAVHFED (also: fluorescent-labeled in binding assay, label and position not given here) [MMP13-19 peptide (amino acids 93-111 of SEQ ID NO: 1)] | 9 | 8
2 | < 2 | LRGETMIFKD (also: fluorescent label (label and position not given here)) [MMP13-10 peptide (amino acids 17-26 of SEQ ID NO: 1)] | < 2 | 4
